In PMC5493754, “Myosin 7 and its adaptors link cadherins to actin” (Nature Communications, 2017):
Residue numbers refer to the chain shown, from its start. In names and notes the source's numbering stands.

T1: YFP-FL-harmonin-ΔCter (human, UniProt Q9Y6N9-1 1-542)
T1 construct: Harmonin-a1 (USH1C), human, residues 1-542 of UniProt Q9Y6N9-1; also called ^YFPFL ΔCter; source: E. coli BL21 (DE3) Rosetta, purified (Glutathione Sepharose 4B, size-exclusion chromatography)
T1 sequence (looked up): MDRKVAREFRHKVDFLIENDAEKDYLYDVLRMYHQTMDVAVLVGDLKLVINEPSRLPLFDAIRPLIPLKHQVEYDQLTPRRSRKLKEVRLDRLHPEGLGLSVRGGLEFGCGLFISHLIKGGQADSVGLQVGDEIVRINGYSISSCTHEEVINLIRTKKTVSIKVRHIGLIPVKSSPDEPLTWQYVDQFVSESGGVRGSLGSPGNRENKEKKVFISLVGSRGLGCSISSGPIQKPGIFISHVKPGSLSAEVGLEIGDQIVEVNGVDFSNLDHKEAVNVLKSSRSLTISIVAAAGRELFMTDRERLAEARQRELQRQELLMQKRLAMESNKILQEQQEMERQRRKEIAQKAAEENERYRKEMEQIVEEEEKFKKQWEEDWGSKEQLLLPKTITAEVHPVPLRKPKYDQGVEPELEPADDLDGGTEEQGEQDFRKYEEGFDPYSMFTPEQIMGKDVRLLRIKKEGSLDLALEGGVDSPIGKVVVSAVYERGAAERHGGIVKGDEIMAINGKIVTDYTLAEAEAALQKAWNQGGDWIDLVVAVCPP

T2: YFP-Myosin 7a MF2 (human, UniProt Q13402-1 1702-2215)
T2 construct: Myosin 7a, human, MF2, residues 1702-2215 of UniProt Q13402-1; pET14-YFP vector; also called ^YFPM7a MF2; source: E. coli (BL21-AI, BL21 (DE3) Rosetta or BL21-Gold (DE3)), purified (Histrap, CaptoQ, gel filtration)
T2 sequence (looked up): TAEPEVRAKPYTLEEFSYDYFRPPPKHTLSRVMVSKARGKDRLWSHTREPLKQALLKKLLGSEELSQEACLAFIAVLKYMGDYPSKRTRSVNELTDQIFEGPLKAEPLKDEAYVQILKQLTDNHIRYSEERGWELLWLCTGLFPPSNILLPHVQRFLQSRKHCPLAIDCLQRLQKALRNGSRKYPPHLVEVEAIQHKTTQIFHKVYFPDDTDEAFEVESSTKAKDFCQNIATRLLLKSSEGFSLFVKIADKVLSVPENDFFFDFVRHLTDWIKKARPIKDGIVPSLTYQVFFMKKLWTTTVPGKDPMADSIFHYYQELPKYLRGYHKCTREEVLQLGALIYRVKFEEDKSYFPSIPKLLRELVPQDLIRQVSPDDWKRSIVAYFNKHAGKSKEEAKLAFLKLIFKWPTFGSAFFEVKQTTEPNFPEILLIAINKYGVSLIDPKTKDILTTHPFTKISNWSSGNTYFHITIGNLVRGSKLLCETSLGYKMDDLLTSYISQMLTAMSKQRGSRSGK

T3: YFP-Myosin 7b MF2 (human, UniProt Q6PIF6 1605-2116)
T3 construct: Myosin 7b, human, MF2, residues 1605-2116 of UniProt Q6PIF6; pET14-YFP vector; also called ^YFPM7b MF2; source: E. coli (BL21-AI, BL21 (DE3) Rosetta or BL21-Gold (DE3)), purified (Histrap, CaptoQ, gel filtration)
T3 sequence (looked up): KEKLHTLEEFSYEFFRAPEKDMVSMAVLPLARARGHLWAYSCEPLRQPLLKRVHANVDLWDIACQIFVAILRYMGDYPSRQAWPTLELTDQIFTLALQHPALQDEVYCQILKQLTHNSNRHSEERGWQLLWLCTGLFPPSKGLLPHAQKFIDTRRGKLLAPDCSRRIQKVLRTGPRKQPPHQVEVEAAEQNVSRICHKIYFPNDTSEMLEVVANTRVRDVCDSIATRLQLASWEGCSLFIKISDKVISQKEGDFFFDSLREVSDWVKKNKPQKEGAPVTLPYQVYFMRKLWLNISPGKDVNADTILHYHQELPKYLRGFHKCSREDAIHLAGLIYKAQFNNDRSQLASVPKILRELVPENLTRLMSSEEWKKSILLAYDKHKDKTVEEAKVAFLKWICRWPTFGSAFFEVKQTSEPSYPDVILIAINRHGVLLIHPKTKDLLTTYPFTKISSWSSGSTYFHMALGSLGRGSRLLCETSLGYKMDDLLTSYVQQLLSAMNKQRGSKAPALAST

T4: Harmonin NPDZ1 (GST removed, as used in ITC) (human, UniProt Q9Y6N9-1 1-197)
T4 construct: Harmonin-a1 (USH1C), human, residues 1-197 of UniProt Q9Y6N9-1; not shown: GST, N-terminal, cleaved
T4 sequence (looked up): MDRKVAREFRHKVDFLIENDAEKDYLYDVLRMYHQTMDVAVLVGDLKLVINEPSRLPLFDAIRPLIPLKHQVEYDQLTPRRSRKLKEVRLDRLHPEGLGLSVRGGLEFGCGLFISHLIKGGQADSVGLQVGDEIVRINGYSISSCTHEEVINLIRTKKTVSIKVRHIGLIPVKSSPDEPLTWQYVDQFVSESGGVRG

T5: Myosin 7a MF2 (human, UniProt Q13402-1 1702-2215)
T5 construct: Myosin 7a, human, C-terminal MyTH4-FERM domain (MF2), residues 1702-2215 of UniProt Q13402-1; Thrombin site of the vector replaced by an SSG linker; also called M7a MF2; Myo7a MF2; source: E. coli (BL21-AI, BL21 (DE3) Rosetta or BL21-Gold (DE3)), purified (Histrap, CaptoQ, gel filtration)
T5 sequence (looked up): T2 sequence (looked up)

T6: Myosin 7b MF2 (human, UniProt Q6PIF6 1605-2116)
T6 construct: also called M7b MF2; Myo7b MF2; source: E. coli (BL21-AI, BL21 (DE3) Rosetta or BL21-Gold (DE3)), purified (Histrap, CaptoQ, gel filtration)
T6 sequence (looked up): T3 sequence (looked up)

T7: YFP-Full length (FL)-harmonin (harmonin-a1) (human, UniProt Q9Y6N9-1 1-552)
T7 construct: Harmonin-a1 (USH1C), human, residues 1-552 of UniProt Q9Y6N9-1; also called ^YFPFL (isoA); ^YFPFL; source: E. coli BL21 (DE3) Rosetta, purified (Glutathione Sepharose 4B, size-exclusion chromatography)
T7 sequence (looked up): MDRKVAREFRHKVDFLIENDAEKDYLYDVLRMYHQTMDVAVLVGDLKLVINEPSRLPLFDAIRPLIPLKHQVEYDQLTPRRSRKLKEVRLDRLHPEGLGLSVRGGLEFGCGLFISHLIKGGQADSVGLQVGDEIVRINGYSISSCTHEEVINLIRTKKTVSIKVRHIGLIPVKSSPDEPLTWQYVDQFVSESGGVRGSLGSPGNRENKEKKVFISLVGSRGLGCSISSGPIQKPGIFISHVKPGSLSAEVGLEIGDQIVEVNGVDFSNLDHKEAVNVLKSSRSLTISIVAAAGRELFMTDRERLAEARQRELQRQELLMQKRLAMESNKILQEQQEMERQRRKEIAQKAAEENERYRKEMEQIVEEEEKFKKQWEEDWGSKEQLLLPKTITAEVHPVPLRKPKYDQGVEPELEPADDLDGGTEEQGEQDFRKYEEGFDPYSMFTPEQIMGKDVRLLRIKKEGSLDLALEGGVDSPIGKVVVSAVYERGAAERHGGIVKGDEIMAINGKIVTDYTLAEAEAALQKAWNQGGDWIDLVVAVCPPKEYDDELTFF

T8: SANS_(CEN-PBM) (UniProt Q495M9 300-461)
T8 construct: source: E. coli (BL21-AI, BL21 (DE3) Rosetta or BL21-Gold (DE3)), purified (Histrap, CaptoQ, gel filtration)
T8 sequence (looked up): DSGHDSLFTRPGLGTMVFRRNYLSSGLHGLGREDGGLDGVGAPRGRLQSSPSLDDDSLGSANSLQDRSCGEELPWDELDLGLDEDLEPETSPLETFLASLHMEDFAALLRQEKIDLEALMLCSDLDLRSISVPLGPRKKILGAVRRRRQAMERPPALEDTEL

B1: Harmonin-a PDZ2-end (domain or fragment, human, UniProt Q9Y6N9-1 194-552, looked up)
chain: GVRGSLGSPGNRENKEKKVFISLVGSRGLGCSISSGPIQKPGIFISHVKPGSLSAEVGLEIGDQIVEVNGVDFSNLDHKEAVNVLKSSRSLTISIVAAAGRELFMTDRERLAEARQRELQRQELLMQKRLAMESNKILQEQQEMERQRRKEIAQKAAEENERYRKEMEQIVEEEEKFKKQWEEDWGSKEQLLLPKTITAEVHPVPLRKPKYDQGVEPELEPADDLDGGTEEQGEQDFRKYEEGFDPYSMFTPEQIMGKDVRLLRIKKEGSLDLALEGGVDSPIGKVVVSAVYERGAAERHGGIVKGDEIMAINGKIVTDYTLAEAEAALQKAWNQGGDWIDLVVAVCPPKEYDDELTFF
notes: Harmonin-a1 (USH1C), human, residues 194-552 of UniProt Q9Y6N9-1; also called PDZ2-end (isoA); source: E. coli BL21 (DE3) Rosetta, purified (Glutathione Sepharose 4B, size-exclusion chromatography)
B2: Harmonin-a PDZ3c (GST removed, as used in ITC and crystallisation) (domain or fragment, human, UniProt Q9Y6N9-1 428-552, looked up)
chain: QDFRKYEEGFDPYSMFTPEQIMGKDVRLLRIKKEGSLDLALEGGVDSPIGKVVVSAVYERGAAERHGGIVKGDEIMAINGKIVTDYTLAEAEAALQKAWNQGGDWIDLVVAVCPPKEYDDELTFF
notes: Harmonin-a1 (USH1C), human, residues 428-552 of UniProt Q9Y6N9-1; also called PDZ3c (isoA); HarA PDZ3c; not shown: GST, N-terminal, cleaved
B3: Harmonin-a PDZ3c F551V-F552V (domain or fragment, human, UniProt Q9Y6N9-1 428-552, looked up)
chain: B2 chain with F124V, F125V
notes: Harmonin-a1 (USH1C), human, residues 428-552 of UniProt Q9Y6N9-1; also called PDZ3c (isoA) F551V-F552V; source: E. coli BL21 (DE3) Rosetta, purified similarly as wild type
B4: Harmonin NPDZ1 (non-fluorescent, as used in MST and SEC-MALS) (domain or fragment, human, UniProt Q9Y6N9-1 1-197, looked up)
chain: T4 sequence (looked up)
notes: Harmonin-a1 (USH1C), human, N-terminal domain and PDZ1, residues 1-197 of UniProt Q9Y6N9-1; source: E. coli BL21 (DE3) Rosetta, purified (Glutathione Sepharose 4B, size-exclusion chromatography)
B5: YFP-Harmonin NPDZ1 (domain or fragment, human, UniProt Q9Y6N9-1 1-197, looked up)
chain: T4 sequence (looked up)
notes: Harmonin-a1 (USH1C), human, residues 1-197 of UniProt Q9Y6N9-1; also called ^YFPNPDZ1; source: E. coli BL21 (DE3) Rosetta, purified (Glutathione Sepharose 4B, size-exclusion chromatography)

Columns and labels:
Settings in all cases: both partners purified
YFP-FL-harmonin-ΔCter = molecular target: T1, YFP-FL-harmonin-ΔCter; test: MST; as a1 but 150 mM NaCl (for FL-Harmonin-a); YFP-fused partner constant at 100 nM, non-fluorescent protein titrated
YFP-Myosin 7a MF2 = molecular target: T2, YFP-Myosin 7a MF2; test: MST; YFP-fused partner constant at 100 nM, non-fluorescent protein titrated (16 two-fold dilutions); 20 mM Hepes pH 7.0, 100 mM NaCl, 1 mM EGTA, 0.5 mM TCEP, 0.05% Tween 20; Monolith NT.115
YFP-Myosin 7b MF2 [1] = molecular target: T3, YFP-Myosin 7b MF2; test: as above
[2] = molecular target: T4, Harmonin NPDZ1 (GST removed, as used in …); test: ITC; Microcal iTC200, 10 °C; 20 mM HEPES pH 7.0, 100 mM NaCl, 0.5 mM TCEP, 1 mM EGTA; single binding site model; GST removed from harmonin
Myosin 7a MF2 = molecular target: T5, Myosin 7a MF2; test: as above
Myosin 7b MF2 = molecular target: T6, Myosin 7b MF2; test: as above
YFP-Myosin 7b MF2 [3] = molecular target: T3, YFP-Myosin 7b MF2; test: MST; YFP-fused partner constant at 100 nM, non-fluorescent protein titrated (16 two-fold dilutions); 20 mM Hepes pH 7.0, 100 mM NaCl, 1 mM EGTA, 0.5 mM TCEP, 0.05% Tween 20; Monolith NT.115; remark: listed apart in the source
[4] = molecular target: T7, YFP-Full length (FL)-harmonin …; test: MST; as a1 but 150 mM NaCl (for FL-Harmonin-a); YFP-fused partner constant at 100 nM, non-fluorescent protein titrated
SANS_(CEN-PBM) = molecular target: T8, SANS_(CEN-PBM); test: SEC-MALS; Superdex 10/300 Increase; 20 mM Tris pH 7.0, 100 mM NaCl, 1 mM EGTA, 0.5 mM TCEP; samples at about 20 mg/ml
Harmonin-a PDZ2-end = molecular target: B1; test: MST; YFP-fused partner constant at 100 nM, non-fluorescent protein titrated (16 two-fold dilutions); 20 mM Hepes pH 7.0, 100 mM NaCl, 1 mM EGTA, 0.5 mM TCEP, 0.05% Tween 20; Monolith NT.115

## B1
YFP-FL-harmonin-ΔCter
  Kd: 2000 nM
YFP-Myosin 7a MF2
  Kd: 1880 nM
YFP-Myosin 7b MF2 [1]
  Kd: 2790 ± 790 nM

## B2
[2]
  Kd: 10 ± 3 µM
Myosin 7a MF2
  Kd: 1000 nM
Myosin 7b MF2
  Kd: 1400 ± 600 nM

## B3
YFP-Myosin 7b MF2 [3]
  Kd: 68 µM
YFP-Myosin 7b MF2 [1]
  Kd: > 100000 nM

## B4
[4]
  Kd: 11.3 µM
SANS_(CEN-PBM)
  stoichiometry N: 1

## B5
Harmonin-a PDZ2-end
  Kd: 4.2 µM
